Reference: the supplement of paper PMC9170038

Tested on: MS2 coat protein
Assay: apparent KD of MS2 coat protein; higher = weaker reporter binding
Conditions: Eterna round: R107; input ligand: arginine 13.2 mM
How it was run: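 Apparent KD is reported per design as the median of normalised binding-curve fits across its clusters. The RNA switches were made by on-chip transcription from Illumina sequencing clusters. SNAP-549-labelled MS2 coat protein was then added in twofold steps (0.7 or 1.5 nM to 3 µM; 0.8–1.5 h to 10–20 min per step) in 100 mM Tris-HCl pH 7.5, 80 mM KCl, 4 mM MgCl2, without or with constant ligand.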

Sequence	apparent KD of MS2 coat protein [nM]
GCACCAGGUACGGAUACCAGACAUUGCCGUUAGGGUGAACAUGAGGAUCACCCAUGUUUUGUCCCUUGGCAGCCGUACCUGGUGC [ETB NP+V+V2 #7 Same Structure]	9.58
CUCCCGUGGUCGGCCGCCACUGGAGGCCUUGCGCGACAUGAGGAUCACCCAUGUUGGCCCGGCGUCAGGACCGGGAUCGCGUGAG [#1 Same State - Tryptophan B Attempt #10 (HarryS)]	8.86
AAGGCACGAGACAUGAGGAUCACCCAUGUUCGAGGACCGGUACGGCCGCCACUCGGUGGACUCAUGGUAAAGCCGGUGAGCCAAA [AK 1.1 SS Trypt (A)]	18
GUGUUAUGCUCGGCCGCCACUCUGACAUGAGGAUCACCCAUGUUGUACAUGAGGAUCACCCAUGUGAGGACCGGGAGAAACACGA [Exclusion Tryptophan B GF9]	191
UACAUGAGGAUCACCCAUGUAUGAAUAGAUACCAGAUAAAAUAAGGUCCCUUGGCAGCUAGUGAAUCGAGGGUGGGUAUCAUGAU [#12 Exclusion-TheophyllineA]	9.47
UUGACAUGAGGAUCACCCAUGUUAGCUGAAGGAGCGAGGUAGUACUCAGGUAGGUCGCAGAGAGCAGAGUUAGUUGUUCUCAUGU [X-ArgiA-ms2@4]	21.5
ACAUGAGGAUCACCCAUGUGUCCUCGAAAACGAGGACCGGUACGGCCGCCACUCGAAAUAAGCGACAAGCGAAAAGCUUGUCGCA [Mat - Exclusion - Trytophan A - D22]	57.6
GAAGGAGAGUGAUCCACUCCUUCUCUGGAAGGAGCGAGCGAAAGCUCAGGUAGGUCGCCAGAAACAUGAGGAUCACCCAUGUAAU [(A)''-(M)'-(A)'-(Arg1)-(Arg2)-(M1)-(M2)_Design7]	61.2
AUCUCAUAGAGUGAUACCAGACUACAUGAGGAUCACCCAUGUUACAUUUAAAUAUCAUUUGUCCCUUGGCAGCACAUGAAGUACA [JR_Nu_ExcTheophyB_Sub018]	22.9
AUUAAGGAUAUGUAGACGGCGGAGAAGAGACGAGGACCGGUACGGCCGCCACUCGUGUUAGUUAACAUGAGGAUCACCCAUGUAA [#07 Tryptophan A Same State]	51.3
GGGUGGUAGGCGGCCGCCACUGAUUUUUAUUUAUAGAUGACAUGAGGAUCACCCAUGUUUAUAUGCAGGACCGGGCCUGUUGUGG [aaaQ]	12
CUACAUUUGUAGAAACCGGUCAACAUUAUUCGAGGACCGGUACGGCCGCCACUCGUAUAUUUUAAUACAUGAGGAUCACCCAUGU [Tryptophan A 6]	12.3
GGUCUCGAGGGCGAUACCAGCUUGAUCGUACUGGCCUGGUACAUGAGGAUCACCCAUGUAAGCCCUUGGCAGCGCGCUCGAGACC [#1 Exclusion - Theophylline B Attempt #6 (HarryS)]	7.85
AUCGUACCUGAUGAUACCAGCAAUUGCUCGUAACAUGAGGAUCACCCAUGUGACCAGUGAUGCCCUUGGCAGCAUGAUCGGUGCA [Same State - Theophylline B (Freestyle 20)]	45.7
UGUAUGUGAUCUGAUACCAGUCCAACUGGUAAAACACGAGGAUCACCCGUGUAAAAUUGGGACCCUUGGCAGCAGAUCGCAUACU	70
AAUGAGUGGUGGUCAAACAUGGGUGAUCAACGAGGACCGGUACGGCCGCCACUCGAUAACAUGAGGAUCACCCAUGUAAUAAUAA [|T'-M'-Trp-Ms2|_Design9]	55.5
AAGACAUGAGGAUCACCCAUGUGGAGGGAUACCAGCCUGUGUGUGGGCCCUUGGCAGCUUAAAUUUAAUUUAAUUAAAUAAAUUU [Same State - Theophylline A]	27.6
GAUCCGUACCAGACCUUCAAUGGACUCAGUCGAGGACCGGUACGGCCGCCACUCGGAGAAGAACAUGAGGAUCACCCAUGUGAUG [theeternabot_exclusion_MS2_Trp_A_36]	23.9
UCGGGAACAUGAGGAUCACCCAUGUCAGAAGGAGCGCUGAGAGAAGCAGGUAGGUCGCUGACGCAGGAGCUCUCUUCCUGUACGC [#22 Exclusion - Arginine A]	96.2
AUACAUGAGGAUCACCCAUGUCAUACAGAAGGAGCGUCACAUAAGACAGGUAGGUCGCUGAUAUAUACGUCACGAAUAGUGACGA [JR_SSArginiA_Sub017]	16.8
UGUACAUAAUUAGGUUACCUAUGUACAGAAGGAGCGUCGAUGACGACAGGUAGGUCGCUGUUAACAUGAGGAUCACCCAUGUACA [Arg A Ex t4]	37.7
UGUAUGUGAUUUGAUACCAGUCCAACUGGUAAAACAUGAGGAUCACCCAUGUAAAAUUGGGACCCUUGGCAGCAAAUCGCAUACU [SSTheo B #21]	144
GCACCAGGUACGGAUACCAGCUAUAGGCCCAAUGGGCGACAUGAGGAUCACCCAUGUAAUGGCCCUUGGCAGCUGUACCUGGUGC [SSThB NP+V+V2 #11 +-Same Structure]	61.6
AUACACCUCGUCCAGGCAAUCUUUAGUGAUACCAGCUAACUCCGUGGCCCUUGGCAGCACAUGAGGAUCACCCAUGUGCGACAUC [Bioninen]	10.2
GCUAGGUCUACGGCCGCCACUAGACGUGGGUAAGACAUGAGGAUCACCCAUGUACUACAGGCGAAUAGGACCGGGUAGACCUAGC [SSTB NP+V+V2 #12 Same Structure]	58.2
CGCGUCCCGGACGAUACCAGAUAUGAGCGACACAUGAGGAUCACCCAUGUCAAUCAUGAGAUCCCUUGGCAGCGUUUGCACAACU [theeternabot_sameState_MS2_Theo_B_8]	81.2
AGGGAACAUGAGGAUCACCCAUGUGCCGAUACCAGUGAUUUUCAGCACCCUUGGCAGCGGAACCUUUGUUAUAUUAUUCUUAGGG [theeternabot_sameState_MS2_Theo_A_25]	32.5
GGGUGGUAGGCGGCCGCCACUGAUUUUUAUAUAUAUAUAACAUGAGGAUCACCCAUGUAGAUAUGCAGGACCGGGCCUGUUGUUU [aaaM]	21.7

Same assay, conditions: Eterna round: R107; input ligand: none

Sequence	apparent KD of MS2 coat protein [nM]
GCACCAGGUACGGAUACCAGACAUUGCCGUUAGGGUGAACAUGAGGAUCACCCAUGUUUUGUCCCUUGGCAGCCGUACCUGGUGC [ETB NP+V+V2 #7 Same Structure]	9.57
CUCCCGUGGUCGGCCGCCACUGGAGGCCUUGCGCGACAUGAGGAUCACCCAUGUUGGCCCGGCGUCAGGACCGGGAUCGCGUGAG [#1 Same State - Tryptophan B Attempt #10 (HarryS)]	14.4
GUGUUAUGCUCGGCCGCCACUCUGACAUGAGGAUCACCCAUGUUGUACAUGAGGAUCACCCAUGUGAGGACCGGGAGAAACACGA [Exclusion Tryptophan B GF9]	193
UUGACAUGAGGAUCACCCAUGUUAGCUGAAGGAGCGAGGUAGUACUCAGGUAGGUCGCAGAGAGCAGAGUUAGUUGUUCUCAUGU [X-ArgiA-ms2@4]	19.1
ACAUGAGGAUCACCCAUGUGUCCUCGAAAACGAGGACCGGUACGGCCGCCACUCGAAAUAAGCGACAAGCGAAAAGCUUGUCGCA [Mat - Exclusion - Trytophan A - D22]	113
GAAGGAGAGUGAUCCACUCCUUCUCUGGAAGGAGCGAGCGAAAGCUCAGGUAGGUCGCCAGAAACAUGAGGAUCACCCAUGUAAU [(A)''-(M)'-(A)'-(Arg1)-(Arg2)-(M1)-(M2)_Design7]	104
GGUCUCGAGGGCGAUACCAGCUUGAUCGUACUGGCCUGGUACAUGAGGAUCACCCAUGUAAGCCCUUGGCAGCGCGCUCGAGACC [#1 Exclusion - Theophylline B Attempt #6 (HarryS)]	11
UGUAUGUGAUCUGAUACCAGUCCAACUGGUAAAACACGAGGAUCACCCGUGUAAAAUUGGGACCCUUGGCAGCAGAUCGCAUACU	87.5
UCGGGAACAUGAGGAUCACCCAUGUCAGAAGGAGCGCUGAGAGAAGCAGGUAGGUCGCUGACGCAGGAGCUCUCUUCCUGUACGC [#22 Exclusion - Arginine A]	33.8
AUACAUGAGGAUCACCCAUGUCAUACAGAAGGAGCGUCACAUAAGACAGGUAGGUCGCUGAUAUAUACGUCACGAAUAGUGACGA [JR_SSArginiA_Sub017]	18.6
UGUACAUAAUUAGGUUACCUAUGUACAGAAGGAGCGUCGAUGACGACAGGUAGGUCGCUGUUAACAUGAGGAUCACCCAUGUACA [Arg A Ex t4]	44.4
GCUAGGUCUACGGCCGCCACUAGACGUGGGUAAGACAUGAGGAUCACCCAUGUACUACAGGCGAAUAGGACCGGGUAGACCUAGC [SSTB NP+V+V2 #12 Same Structure]	36.4
GGGUGGUAGGCGGCCGCCACUGAUUUUUAUAUAUAUAUAACAUGAGGAUCACCCAUGUAGAUAUGCAGGACCGGGCCUGUUGUUU [aaaM]	25

Same assay, conditions: Eterna round: R107; input ligand: theophylline 20 uM

Sequence	apparent KD of MS2 coat protein [nM]
GCACCAGGUACGGAUACCAGACAUUGCCGUUAGGGUGAACAUGAGGAUCACCCAUGUUUUGUCCCUUGGCAGCCGUACCUGGUGC [ETB NP+V+V2 #7 Same Structure]	14.7
CUCCCGUGGUCGGCCGCCACUGGAGGCCUUGCGCGACAUGAGGAUCACCCAUGUUGGCCCGGCGUCAGGACCGGGAUCGCGUGAG [#1 Same State - Tryptophan B Attempt #10 (HarryS)]	18.8
AAGGCACGAGACAUGAGGAUCACCCAUGUUCGAGGACCGGUACGGCCGCCACUCGGUGGACUCAUGGUAAAGCCGGUGAGCCAAA [AK 1.1 SS Trypt (A)]	25.2
GUGUUAUGCUCGGCCGCCACUCUGACAUGAGGAUCACCCAUGUUGUACAUGAGGAUCACCCAUGUGAGGACCGGGAGAAACACGA [Exclusion Tryptophan B GF9]	191
UACAUGAGGAUCACCCAUGUAUGAAUAGAUACCAGAUAAAAUAAGGUCCCUUGGCAGCUAGUGAAUCGAGGGUGGGUAUCAUGAU [#12 Exclusion-TheophyllineA]	12.7
UUGACAUGAGGAUCACCCAUGUUAGCUGAAGGAGCGAGGUAGUACUCAGGUAGGUCGCAGAGAGCAGAGUUAGUUGUUCUCAUGU [X-ArgiA-ms2@4]	28.5
ACAUGAGGAUCACCCAUGUGUCCUCGAAAACGAGGACCGGUACGGCCGCCACUCGAAAUAAGCGACAAGCGAAAAGCUUGUCGCA [Mat - Exclusion - Trytophan A - D22]	194
GAAGGAGAGUGAUCCACUCCUUCUCUGGAAGGAGCGAGCGAAAGCUCAGGUAGGUCGCCAGAAACAUGAGGAUCACCCAUGUAAU [(A)''-(M)'-(A)'-(Arg1)-(Arg2)-(M1)-(M2)_Design7]	92.6
AUCUCAUAGAGUGAUACCAGACUACAUGAGGAUCACCCAUGUUACAUUUAAAUAUCAUUUGUCCCUUGGCAGCACAUGAAGUACA [JR_Nu_ExcTheophyB_Sub018]	37.3
AUUAAGGAUAUGUAGACGGCGGAGAAGAGACGAGGACCGGUACGGCCGCCACUCGUGUUAGUUAACAUGAGGAUCACCCAUGUAA [#07 Tryptophan A Same State]	56.1
GGGUGGUAGGCGGCCGCCACUGAUUUUUAUUUAUAGAUGACAUGAGGAUCACCCAUGUUUAUAUGCAGGACCGGGCCUGUUGUGG [aaaQ]	22.5
CUACAUUUGUAGAAACCGGUCAACAUUAUUCGAGGACCGGUACGGCCGCCACUCGUAUAUUUUAAUACAUGAGGAUCACCCAUGU [Tryptophan A 6]	14.2
GGUCUCGAGGGCGAUACCAGCUUGAUCGUACUGGCCUGGUACAUGAGGAUCACCCAUGUAAGCCCUUGGCAGCGCGCUCGAGACC [#1 Exclusion - Theophylline B Attempt #6 (HarryS)]	18.5
AUCGUACCUGAUGAUACCAGCAAUUGCUCGUAACAUGAGGAUCACCCAUGUGACCAGUGAUGCCCUUGGCAGCAUGAUCGGUGCA [Same State - Theophylline B (Freestyle 20)]	48.9
